# Results reported in patent US20220169677A1 (INSERM INSTITUT NATIONAL DE LA SANTE ET DE LA RECHERCHE …, published 2022).
# T1: recombinant human NRP-1 (human, UniProt O14786-2 22-644, limits assumed)
# T1 construct: Coated on a 96-well plate at 200 ng/well; GenBank AAC51759.1 is printed only as the preferred definition of NRP-1; also called Neuropilin-1
# T1 sequence (looked up): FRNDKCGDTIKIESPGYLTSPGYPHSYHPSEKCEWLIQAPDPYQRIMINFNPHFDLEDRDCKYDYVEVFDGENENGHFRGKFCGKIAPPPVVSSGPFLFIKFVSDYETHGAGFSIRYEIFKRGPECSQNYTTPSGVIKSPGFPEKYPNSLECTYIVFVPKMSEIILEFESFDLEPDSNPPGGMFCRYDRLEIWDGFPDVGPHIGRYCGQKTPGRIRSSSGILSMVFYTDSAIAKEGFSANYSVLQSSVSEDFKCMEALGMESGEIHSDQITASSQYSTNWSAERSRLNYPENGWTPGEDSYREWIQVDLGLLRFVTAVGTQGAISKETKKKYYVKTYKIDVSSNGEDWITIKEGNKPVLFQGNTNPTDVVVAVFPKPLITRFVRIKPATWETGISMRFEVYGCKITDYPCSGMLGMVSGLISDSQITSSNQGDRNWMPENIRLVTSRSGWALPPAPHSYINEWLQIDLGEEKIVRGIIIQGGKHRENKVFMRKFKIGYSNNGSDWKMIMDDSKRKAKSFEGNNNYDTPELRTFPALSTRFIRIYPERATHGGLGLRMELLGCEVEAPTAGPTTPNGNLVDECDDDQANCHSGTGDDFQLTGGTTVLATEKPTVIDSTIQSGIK
# Experiments:
# [1] = target: T1, recombinant human NRP-1; test: chemiluminescence competition: inhibition of (bt)-VEGF-A165 binding to coated NRP-1
# Experimental: The flat bottom surface of a 96-well plate was coated with 100 μL (200 ng/well) recombinant human NRP-1 and incubated overnight at 4° C. Non-specific binding was blocked by the incubation with 0.5% BSA in PBS. 50 μL of peptide dissolved in PBS in range concentrations and 50 μL (400 ng/mL) of human (bt)-VEGF-A₁₆₅ in PBS containing 4 μg/mL of heparin were added respectively. After 2 h incubation at room temperature the plate was washed and treated with streptavidin-horseradish peroxidase conjugate in PBS (1:8000). Chemiluminescence was quantified immediately after addition of 100 μL Chemiluminescent substrate. In a positive control only (bt)-VEGF-A₁₆₅ was present in wells, while, in negative control, wells were not coated by NRP-1. Percentages of inhibition were calculated by the following formula: […]
# [2] = target: T1, recombinant human NRP-1; test: competition: inhibition of (bt)-VEGF-A165 binding to coated NRP-1
Molecule,IC50 [1] [nM],fold decrease in IC50 against the sequence without cysteine [1] [fold],IC50 [2] [nM]
H-Lys(Cys-hArg)-Dab-ΔPro-Arg-OH (peptide),60,100,–
H-Lys(Cys-hArg)-Dab-Oic-Arg-OH (peptide),40,100,–
H-Cys-Lys(hArg)-Dab-ΔPro-Arg-OH (peptide),70,100,–
H-Cys-Lys(hArg)-Dab-Oic-Arg-OH (peptide),50,100,–
LPPR (Parent tetrapeptide without Cys; 3) [LPPR (active part of A7R)],–,–,80000
H-CLPPR-OH (LPPR (active part of A7R) with an added N-terminal Cys; also called CLPPR) [H2N-Cys-Leu-Pro-Pro-Arg-OH],17000,–,–
H-CTKPR-OH (TKPR (tuftsin) with an added N-terminal Cys; also called CTKPR) [H2N-Cys-Thr-Lys-Pro-Arg-OH],19000,–,–
KPRR (Parent tetrapeptide without Cys; 5) [KPRR (peptide derived from the VEGF-A165)],–,–,4500
H-CKPRR-OH (KPRR (peptide derived from the VEGF-A165 C-terminus) with an added N-terminal Cys; also called CKPRR) [H2N-Cys-Lys-Pro-Arg-Arg-OH],100,–,–
